Measurements: US20090170751A1

Target: Plasma fibronectin, affinity purified from human plasma (human) (UniProt P02751)
Assay: cell-based or functional assay

Sequence of Plasma fibronectin, affinity purified from human plasma (human) (P02751 32-2477): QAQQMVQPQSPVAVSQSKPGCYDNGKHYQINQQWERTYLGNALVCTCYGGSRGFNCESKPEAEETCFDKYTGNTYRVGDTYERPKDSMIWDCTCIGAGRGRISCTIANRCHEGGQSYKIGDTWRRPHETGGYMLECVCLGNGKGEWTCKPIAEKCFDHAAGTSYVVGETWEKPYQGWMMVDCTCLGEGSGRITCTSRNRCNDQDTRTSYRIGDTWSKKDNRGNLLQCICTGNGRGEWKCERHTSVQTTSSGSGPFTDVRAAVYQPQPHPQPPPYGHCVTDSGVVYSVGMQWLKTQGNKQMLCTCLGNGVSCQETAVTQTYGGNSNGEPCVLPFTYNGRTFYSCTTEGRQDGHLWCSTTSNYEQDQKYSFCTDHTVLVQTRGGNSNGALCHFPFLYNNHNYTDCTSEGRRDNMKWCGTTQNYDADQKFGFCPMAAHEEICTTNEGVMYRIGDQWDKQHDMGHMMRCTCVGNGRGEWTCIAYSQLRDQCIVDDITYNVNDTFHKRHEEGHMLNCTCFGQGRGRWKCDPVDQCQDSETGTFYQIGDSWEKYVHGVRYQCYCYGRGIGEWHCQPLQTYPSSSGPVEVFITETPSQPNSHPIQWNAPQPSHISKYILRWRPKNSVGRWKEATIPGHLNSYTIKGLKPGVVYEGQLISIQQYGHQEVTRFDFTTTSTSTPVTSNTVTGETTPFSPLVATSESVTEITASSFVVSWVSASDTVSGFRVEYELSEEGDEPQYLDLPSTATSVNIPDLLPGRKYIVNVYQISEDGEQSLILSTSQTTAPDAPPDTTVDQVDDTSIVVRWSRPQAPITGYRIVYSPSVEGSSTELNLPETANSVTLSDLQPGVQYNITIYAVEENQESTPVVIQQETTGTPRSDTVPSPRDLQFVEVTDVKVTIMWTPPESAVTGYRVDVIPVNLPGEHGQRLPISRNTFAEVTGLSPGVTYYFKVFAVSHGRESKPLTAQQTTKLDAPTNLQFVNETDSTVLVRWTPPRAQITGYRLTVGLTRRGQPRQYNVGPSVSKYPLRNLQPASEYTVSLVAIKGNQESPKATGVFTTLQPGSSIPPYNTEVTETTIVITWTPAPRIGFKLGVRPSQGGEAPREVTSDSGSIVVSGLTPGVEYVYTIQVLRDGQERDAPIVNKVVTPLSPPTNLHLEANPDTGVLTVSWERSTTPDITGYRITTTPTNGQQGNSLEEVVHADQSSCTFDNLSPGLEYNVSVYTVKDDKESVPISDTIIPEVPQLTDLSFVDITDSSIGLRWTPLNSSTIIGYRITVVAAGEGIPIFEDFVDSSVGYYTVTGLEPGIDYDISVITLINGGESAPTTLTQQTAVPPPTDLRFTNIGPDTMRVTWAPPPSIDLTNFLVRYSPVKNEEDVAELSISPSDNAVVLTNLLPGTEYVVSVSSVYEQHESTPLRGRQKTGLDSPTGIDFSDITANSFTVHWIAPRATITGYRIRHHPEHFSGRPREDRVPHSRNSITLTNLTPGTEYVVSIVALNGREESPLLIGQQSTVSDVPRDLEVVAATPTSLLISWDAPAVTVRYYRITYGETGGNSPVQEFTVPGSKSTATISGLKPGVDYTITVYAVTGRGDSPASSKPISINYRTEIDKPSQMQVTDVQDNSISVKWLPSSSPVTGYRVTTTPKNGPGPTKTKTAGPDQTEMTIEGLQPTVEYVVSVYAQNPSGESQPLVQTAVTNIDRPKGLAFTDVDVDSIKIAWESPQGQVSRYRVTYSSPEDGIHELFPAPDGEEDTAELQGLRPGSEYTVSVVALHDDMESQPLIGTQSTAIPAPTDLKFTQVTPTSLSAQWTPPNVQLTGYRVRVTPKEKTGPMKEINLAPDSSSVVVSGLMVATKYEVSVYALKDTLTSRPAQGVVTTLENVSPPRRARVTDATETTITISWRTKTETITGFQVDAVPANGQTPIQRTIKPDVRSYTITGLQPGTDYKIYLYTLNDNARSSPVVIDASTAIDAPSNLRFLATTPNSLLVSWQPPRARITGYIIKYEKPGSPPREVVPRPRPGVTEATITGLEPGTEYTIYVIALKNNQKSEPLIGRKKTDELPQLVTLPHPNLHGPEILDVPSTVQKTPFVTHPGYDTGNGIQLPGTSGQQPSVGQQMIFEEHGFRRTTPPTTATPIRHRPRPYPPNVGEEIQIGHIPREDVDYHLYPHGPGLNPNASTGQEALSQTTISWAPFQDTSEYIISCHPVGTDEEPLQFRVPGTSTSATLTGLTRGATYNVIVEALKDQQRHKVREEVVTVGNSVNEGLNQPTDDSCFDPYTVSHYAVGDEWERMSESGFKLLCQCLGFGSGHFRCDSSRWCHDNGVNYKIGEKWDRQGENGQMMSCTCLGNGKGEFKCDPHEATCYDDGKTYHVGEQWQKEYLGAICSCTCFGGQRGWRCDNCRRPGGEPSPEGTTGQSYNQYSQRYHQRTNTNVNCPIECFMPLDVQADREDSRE
Sequence of Recombinant Anastellin, P02751 631-703 (P02751 other isoform, or with tags, fused parts or gaps limits assumed): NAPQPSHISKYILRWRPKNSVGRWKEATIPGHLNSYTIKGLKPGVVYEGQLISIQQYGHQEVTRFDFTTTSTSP

fibronectin aggregation, increase in absorbance at 600 nm: > 20 µM
Substance: Recombinant Anastellin, P02751 631-703
